Paper PMC10625565
Residue numbers refer to the chain shown, from its start. Numbers in names are those of the source. Blank lines part the entries; values can stand above or below the binder they belong to.

Biological target: GST-PpROP4CA (G15V)
Test: pull-down (MBP pull-down, Coomassie-stained SDS-PAGE, band quantification)
Conditions: chain shown with the change; three replicates; parent: est. 0.31; read off a plot

Sequence of GST-PpROP4CA (G15V) (chain, as listed by the source G15V): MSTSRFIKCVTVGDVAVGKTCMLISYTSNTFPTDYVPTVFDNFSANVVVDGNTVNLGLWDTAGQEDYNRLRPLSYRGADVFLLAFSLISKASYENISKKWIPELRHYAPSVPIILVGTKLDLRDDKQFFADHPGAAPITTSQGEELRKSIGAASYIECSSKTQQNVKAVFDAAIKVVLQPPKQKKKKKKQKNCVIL

other: Protein ratio: 0.25
B1: MBP-PpRopGAP1 (wild type), A0A2K1KNT6 R239L (protein)
chain: MTQVLPTQIHLGSFTPDQSESEDYVNALHYVSDTDTDGYSGNHASPMILGDATISIRELCKEPEARKSGLSHSSSFSSITRGRWGEIGARSRNGSLNRRHSSFRSGSFNRSNNDQERERSAQLSLVALLLATVRRSVLTMCQDVEEGDESSLEIGWPTDVQHVAHVTFDRYNGFLGLPQEFEVEVPGRVPSASQSVFGVSAESMQCSYDHNGNSVPTILLLMQERLYHQGGLKAEGIFLINAENSHHEHVRDQLNKGIVPMDIDSYCLAGLIKAWFRELPQGVLDVLTPEQVLECHTEEESVALVKLLPPTQAALLDWAVNLMADVVQDEVVNKMNARNIAMVFAPNMTQMADPLTALMHAVQVMNLLKTLILRTLKDREEAILEQAQGLTRAEASEGDEPDSECNNVVLTSQERQNSLREEEASKVDCDEYSQRILIPVKRNTKVNSISKSGNLVNTIDHNNQRVEAW

other: Protein ratio: 0.1
B2: MBP-PpRopGAP1 (wild type), A0A2K1KNT6 H165A (protein)
chain: B1 chain with H165A, L239R
